Laboratory results published in FireProtDB (doi:10.1016/j.jmb.2003.11.050).
Where “and” joins values, the source holds several entries; their conditions need not be identical. Equal values may be shown once.

B1: Cold shock protein CspB, P41016 (parent)
chain: MQRGKVKWFNNEKGYGFIEVEGGSDVFVHFTAIQGEGFKTLEEGQEVSFEIVQGNRGPQAANVVKL

Variants of: B1
Conditions: Bacillus caldolyticus; pH 7; 25 °C; GdnHCl; Fluorescence; sodium cacodylate 100 mM; reversible: yes; structure 1C9O; whole UniProt chain shown

Variant	ddG of mutation (higher = less stable)	denaturant m value	denaturant midpoint (higher = more stable)	unfolding free energy
F38W	-0.7 kcal/mol	1.75 kcal/mol/M	2.18 M	3.8 kcal/mol
E50W	-0.3 kcal/mol	1.69 kcal/mol/M	2.18 M	3.7 kcal/mol
E50W L66C	1.7 kcal/mol and 4.4 kcal/mol	1.97 kcal/mol/M and 1.54 kcal/mol/M	1.64 M and 1.68 M	3.23 kcal/mol and 2.58 kcal/mol
E50W S24C	0.8 kcal/mol and 0.3 kcal/mol	1.64 kcal/mol/M and 1.43 kcal/mol/M	2.09 M and 2.05 M	3.44 kcal/mol and 2.92 kcal/mol
F38W L66C		1.97 kcal/mol/M and 1.9 kcal/mol/M and 1.54 kcal/mol/M	2.14 M and 2.11 M and 1.83 M	4.21 kcal/mol and 4.02 kcal/mol and 2.82 kcal/mol
